From patent publication US20250353921A1 (ASTRIA THERAPEUTICS, published 2025)

Key:
[1] = target: T1, human OX40 (TNFRSF4, CD134) on cells (human, UniProt P43489 29-277); assay: cell-based or functional assay
T1 sequence: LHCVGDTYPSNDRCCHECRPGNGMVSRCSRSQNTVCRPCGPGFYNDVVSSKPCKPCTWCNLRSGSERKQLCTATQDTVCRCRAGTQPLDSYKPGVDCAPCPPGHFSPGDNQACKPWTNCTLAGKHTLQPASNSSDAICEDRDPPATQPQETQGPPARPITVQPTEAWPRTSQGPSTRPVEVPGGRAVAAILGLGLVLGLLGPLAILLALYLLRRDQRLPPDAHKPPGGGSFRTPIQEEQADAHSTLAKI

[2] = target: T1, human OX40 (TNFRSF4, CD134) on cells; assay: cell-based or functional assay; remark: listed apart in the source
[3] = target: T1, human OX40 (TNFRSF4, CD134) on cells; assay: cell-based or functional assay; remark: listed apart in the source
[4] = target: T1, human OX40 (TNFRSF4, CD134) on cells; assay: cell-based or functional assay; remark: listed apart in the source
[5] = target: Human CD64 (FcγRI), Sino Biological 10256-H08H (human, UniProt P12314 16-288); assay: SPR Biacore 8K+, receptor captured by anti-His, antibody as analyte
[6] = target: T2, Human CD16a (176F), Sino Biological 10389-H08H (human, UniProt P08637 17-208); assay: as above
T2 construct: also called FcγRIIIa176F

[7] = target: T3, Human CD16a (F176V), Sino Biological 10389-H08H1 (human, UniProt P08637 17-208); assay: as above
T3 construct: also called FcγRIIIa176V

[8] = target: T4, Human CD16b (NA2 allotype), Sino Biological 11046-H08H (human, UniProt O75015 17-200); assay: as above
T4 construct: also called FcγRIIIb

[9] = target: T5, Human CD32a (167 Arg), Sino Biological 10374-H08H (human, UniProt P12318 34-218); assay: as above
T5 construct: also called FcγRIIa167R
T5 sequence (looked up): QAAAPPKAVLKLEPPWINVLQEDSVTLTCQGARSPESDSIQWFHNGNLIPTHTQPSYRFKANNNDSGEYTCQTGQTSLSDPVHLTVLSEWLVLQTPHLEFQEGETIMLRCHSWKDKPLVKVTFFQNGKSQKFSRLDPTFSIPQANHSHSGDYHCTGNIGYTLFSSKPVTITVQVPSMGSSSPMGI

[10] = target: T6, Human CD32a (167 His), Sino Biological 10374-H08H1 (human, UniProt P12318 34-218); assay: as above
T6 construct: also called FcγRIIa167H
T6 sequence (looked up): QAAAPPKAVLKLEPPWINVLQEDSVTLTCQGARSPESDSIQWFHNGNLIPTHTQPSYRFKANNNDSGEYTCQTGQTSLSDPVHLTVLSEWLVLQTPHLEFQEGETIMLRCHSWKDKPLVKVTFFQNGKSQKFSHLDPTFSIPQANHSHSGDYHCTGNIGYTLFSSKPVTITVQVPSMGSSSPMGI

[11] = target: T7, Human CD32b, Sino Biological 10259-H08H (human, UniProt P31994 43-217); assay: as above
T7 construct: also called FcγRIIb
T7 sequence (looked up): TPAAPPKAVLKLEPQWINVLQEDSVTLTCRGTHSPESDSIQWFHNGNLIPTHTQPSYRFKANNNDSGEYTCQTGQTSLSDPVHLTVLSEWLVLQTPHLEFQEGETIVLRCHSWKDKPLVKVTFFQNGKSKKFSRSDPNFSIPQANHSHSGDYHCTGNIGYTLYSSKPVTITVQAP

[12] = target: T8, Human OX40 (Acro Biosystems, catalog NO: OXO-H5224) protein (human, UniProt P43489 29-216); assay: SPR Biacore 8K+, single cycle kinetics, antibody captured by anti-human Fc, OX40 analyte, pH 7.4, 25 °C
T8 construct: Bought protein; also called recombinant human OX40 receptor; recombinant human OX40 protein
T8 sequence: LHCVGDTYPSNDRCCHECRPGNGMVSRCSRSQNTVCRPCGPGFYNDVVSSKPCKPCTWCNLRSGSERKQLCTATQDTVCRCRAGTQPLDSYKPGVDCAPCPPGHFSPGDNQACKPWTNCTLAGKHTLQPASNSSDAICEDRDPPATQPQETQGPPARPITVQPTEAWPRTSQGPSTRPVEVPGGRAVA

[13] = target: T1, human OX40 (TNFRSF4, CD134) on cells; assay: flow cytometry on Jurkat-NF-κB-OX40 cells, detection with PE anti-human IgG Fc, occupancy in % of the saturating dose; no OX40L; time point (0 h or 5 h) not stated on the sheet
[14] = target: T1, human OX40 (TNFRSF4, CD134) on cells; assay: flow cytometry on Jurkat-NF-κB-OX40 cells, detection with PE anti-human IgG Fc, occupancy in % of the saturating dose; in the presence of 0.07 µg/ml OX40L; time point not stated on the sheet

T4 sequence (O75015 17-200 N65S limits assumed): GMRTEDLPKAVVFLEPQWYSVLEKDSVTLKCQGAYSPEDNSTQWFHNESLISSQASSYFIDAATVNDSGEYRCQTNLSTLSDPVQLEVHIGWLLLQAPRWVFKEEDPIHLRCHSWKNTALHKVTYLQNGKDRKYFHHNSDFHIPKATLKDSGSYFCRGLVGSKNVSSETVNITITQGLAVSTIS
T2 sequence (P08637 17-208 limits assumed): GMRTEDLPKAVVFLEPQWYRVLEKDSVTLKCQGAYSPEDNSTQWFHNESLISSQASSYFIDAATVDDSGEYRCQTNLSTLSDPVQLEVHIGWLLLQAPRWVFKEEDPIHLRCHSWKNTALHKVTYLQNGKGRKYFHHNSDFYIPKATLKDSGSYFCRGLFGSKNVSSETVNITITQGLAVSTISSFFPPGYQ
Human CD64 (FcγRI), Sino Biological 10256-H08H, sequence (P12314 16-288 limits assumed): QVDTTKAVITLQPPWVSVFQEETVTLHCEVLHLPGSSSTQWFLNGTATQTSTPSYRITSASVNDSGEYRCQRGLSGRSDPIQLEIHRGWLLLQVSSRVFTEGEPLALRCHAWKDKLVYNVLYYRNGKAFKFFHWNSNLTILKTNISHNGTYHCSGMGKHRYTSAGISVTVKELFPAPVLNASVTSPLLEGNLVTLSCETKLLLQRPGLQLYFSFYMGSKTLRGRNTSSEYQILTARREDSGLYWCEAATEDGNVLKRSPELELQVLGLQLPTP
T3 sequence (P08637 17-208 F176V limits assumed): as the sequence (P08637 17-208 limits assumed) above, with F160V counted along it

B1: MAB10 (antibody, human IgG1, kappa)
heavy: QVTLKESGPALVKPTQTLTLTCSFSGFSLSTSGMGVGWIRQPPGKALEWIAHIWWDDDKYYNTALKTRLTISKDTSKNQVVLTMTNMDPVDTATYYCARIDWDGFAYWGQGTLVTVSSASTKGPSVFPLAPSSKSTSGGTAALGCLVKDYFPEPVTVSWNSGALTSGVHTFPAVLQSSGLYSLSSVVTVPSSSLGTQTYICNVNHKPSNTKVDKKVEPKSCDKTHTCPPCPAPELLGGPSVFLFPPKPKDTLYITREPEVTCVVVDVSHEDPEVKFNWYVDGVEVHNAKTKPREEQYNSTYRVVSVLTVLHQDWLNGKEYKCKVSNKALPAPIEKTISKAKGQPREPQVYTLPPSRDELTKNQVSLTCLVKGFYPSDIAVEWESNGQPENNYKTTPPVLDSDGSFFLYSKLTVDKSRWQQGNVFSCSVMHEALHNHYTQKSLSLSPGK
light: EIVLTQSPATLSLSPGERATLSCRASSSVSYMHWYQQKPGQAPRPWIYATSNRATGIPARFSGSGSGTDYTLTISSLEPEDFAVYYCQQFGAWPWTFGQGTKVEIKRTVAAPSVFIFPPSDEQLKSGTASVVCLLNNFYPREAKVQWKVDNALQSGNSQESVTEQDSKDSTYSLSSTLTLSKADYEKHKVYACEVTHQGLSSPVTKSFNRGEC
notes: MAB1 with M252Y, S254T and T256E (EU numbering) in the IgG1 Fc; also called MAB1 Heavy Chain + YTE
[1]
  EC50, inhibition of IFNγ release: 11.8 nM
  EC50, inhibition of IL-2 release: 2.63 nM
  EC50, inhibition of IL-4 release: 2.88 nM
  EC50, inhibition of IL-5 release: 16.4 nM
  EC50, inhibition of IL-8 release: 9.55 nM
  EC50, inhibition of IL-10 release: 34.1 nM
  EC50, inhibition of IL-13 release: 5.3 nM
  EC50, inhibition of IL-17a release: 23.5 nM
  EC50, inhibition of IL-21 release: 2.75 nM
  EC50, inhibition of IL-22 release: 7.03 nM
  EC50, inhibition of IL-31 release: 2 nM
  EC50, inhibition of TNF-α release: 4.2 nM
  Fold diff to GBR830, IFNγ: 5.7 fold
  Fold diff to GBR830, IL-2: 3 fold
  Fold diff to GBR830, IL-4: 15.5 fold
  Fold diff to GBR830, IL-5: 3.9 fold
  Fold diff to GBR830, IL-8: 6.1 fold
  Fold diff to GBR830, IL-10: 2 fold
  Fold diff to GBR830, IL-13: 13.1 fold
  Fold diff to GBR830, IL-21: 17.2 fold
  Fold diff to GBR830, IL-31: 14.9 fold
  Fold diff to GBR830, TNF-α: 10.3 fold
[2]
  Maximum killing (%), ADCC, activated T cells: 34.9%
[3]
  Maximum killing (%), ADCC, regulatory T cells: 27.3%
[4]
  ADCC EC50, regulatory T cells (LDH release): 2.31 nM
[5]
  Kd: 8.7 nM
[6]
  Kd: 992 nM
[7]
  Kd: 816 nM
[8]
  Kd: 15600 nM
[9]
  binding result: no binding (tested: 5,000 nM highest antibody concentration)
[10]
  Kd: 12700 nM
[11]
  binding result: no binding (tested: 5,000 nM highest antibody concentration)
[12]
  Kd: 7.2 nM
  koff: 0.0016 s⁻¹
  kon: 230000 M⁻¹ s⁻¹
[13]
  EC50 (read off the curve): ~0.3 nM
[14]
  EC50 (read off the curve): ~0.3 nM
